Measurements taken from PMC6290062, “Characterization of a Novel, Cold-Adapted, and Thermostable Laccase-Like Enzyme With High Tolerance for Organic Solvents and Salt and Potent Dye Decolorization Ability, Derived From a Marine Metagenomic Library” (Frontiers in Microbiology, 2018).

Experiments:
Assay in all cases: purified protein
Conditions in all cases: 0.04 M Britton-Robinson buffer, pH 7.0, 60°C
COc1ccccc1O = assay type: biochemical, uncultured bacterium
Oc1ccccc1O = tested on: Oc1ccccc1O
[1] = tested on: COc1cc(C=NN=Cc2cc(OC)c(O)c(OC)c2)cc(OC)c1O

Q: For Lac1326 (uncultured bacterium), which Km (COc1ccccc1O) is on record?
A: 4900 µM

Q: And the kcat (COc1ccccc1O)?
A: 1.34 s⁻¹

Q: What about the kcat/Km (COc1ccccc1O) of the same substance?
A: 270 M⁻¹ s⁻¹

Q: And the Km (Oc1ccccc1O)?
A: 507 µM

Q: What about the kcat/Km (Oc1ccccc1O) of the same substance?
A: 28000 M⁻¹ s⁻¹

Q: And the Km [1]?
A: 831 µM

Q: And the kcat [1]?
A: 24.1 s⁻¹

Q: And the kcat/Km [1]?
A: 29000 M⁻¹ s⁻¹
